Assay results published in PMC9959508.

Biological target: human angiotensin-converting enzyme 2 (human) (UniProt Q9BYF1)
Sequence (Q9BYF1 18-805): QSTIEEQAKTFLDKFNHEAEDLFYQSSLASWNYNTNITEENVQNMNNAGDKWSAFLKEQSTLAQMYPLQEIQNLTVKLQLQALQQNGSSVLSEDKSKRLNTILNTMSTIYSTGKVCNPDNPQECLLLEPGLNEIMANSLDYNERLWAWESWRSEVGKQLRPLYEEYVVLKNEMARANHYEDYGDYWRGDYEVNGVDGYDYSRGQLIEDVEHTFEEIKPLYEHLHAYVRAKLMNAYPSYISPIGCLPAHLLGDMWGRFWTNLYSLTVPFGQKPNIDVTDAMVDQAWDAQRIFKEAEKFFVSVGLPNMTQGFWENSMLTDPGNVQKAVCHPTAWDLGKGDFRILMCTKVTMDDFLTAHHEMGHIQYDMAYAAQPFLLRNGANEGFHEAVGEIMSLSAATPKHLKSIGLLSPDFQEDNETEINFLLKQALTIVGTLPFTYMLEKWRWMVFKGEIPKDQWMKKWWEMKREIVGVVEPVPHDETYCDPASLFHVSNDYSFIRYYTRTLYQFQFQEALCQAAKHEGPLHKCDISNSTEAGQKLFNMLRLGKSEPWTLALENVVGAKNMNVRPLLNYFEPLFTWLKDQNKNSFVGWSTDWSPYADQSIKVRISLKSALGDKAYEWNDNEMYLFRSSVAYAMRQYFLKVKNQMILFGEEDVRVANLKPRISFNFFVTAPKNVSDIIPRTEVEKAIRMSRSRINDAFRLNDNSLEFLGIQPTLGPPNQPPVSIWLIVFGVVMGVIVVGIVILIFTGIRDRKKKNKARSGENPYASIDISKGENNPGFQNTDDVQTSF

Chain of wild-type human PCSK9, mature (prodomain non-covalently bound to the rest of the protein) (Q8NBP7 31-152): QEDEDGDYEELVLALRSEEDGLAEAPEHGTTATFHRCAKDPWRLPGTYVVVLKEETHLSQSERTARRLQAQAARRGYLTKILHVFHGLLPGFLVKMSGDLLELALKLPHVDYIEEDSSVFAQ
Chain of wild-type human PCSK9, mature (prodomain non-covalently bound to the rest of the protein) (Q8NBP7 153-692): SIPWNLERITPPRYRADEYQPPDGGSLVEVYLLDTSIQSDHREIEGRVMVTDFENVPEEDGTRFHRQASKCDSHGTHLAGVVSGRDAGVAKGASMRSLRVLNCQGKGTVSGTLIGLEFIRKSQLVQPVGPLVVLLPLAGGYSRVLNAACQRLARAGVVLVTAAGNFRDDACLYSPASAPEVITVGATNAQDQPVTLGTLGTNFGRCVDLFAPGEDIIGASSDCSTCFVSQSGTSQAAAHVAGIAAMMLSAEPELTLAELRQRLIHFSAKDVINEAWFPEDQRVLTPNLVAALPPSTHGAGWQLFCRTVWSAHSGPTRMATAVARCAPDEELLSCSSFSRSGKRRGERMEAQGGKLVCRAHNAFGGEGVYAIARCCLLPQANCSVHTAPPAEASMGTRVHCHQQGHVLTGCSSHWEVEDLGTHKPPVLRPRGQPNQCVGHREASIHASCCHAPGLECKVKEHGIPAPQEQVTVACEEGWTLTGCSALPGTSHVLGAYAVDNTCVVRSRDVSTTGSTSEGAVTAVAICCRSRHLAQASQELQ
Chain of PCSK9 lacking the M2 module of the CHRD (Q8NBP7 31-152): as the sequence (Q8NBP7 31-152) above
Chain of PCSK9 lacking the M2 module of the CHRD (Q8NBP7 153-692): as the sequence (Q8NBP7 153-692) above
Chain of PCSK9 lacking the CHRD (Q8NBP7 31-152): as the sequence (Q8NBP7 31-152) above
Chain of PCSK9 lacking the CHRD (Q8NBP7 153-455): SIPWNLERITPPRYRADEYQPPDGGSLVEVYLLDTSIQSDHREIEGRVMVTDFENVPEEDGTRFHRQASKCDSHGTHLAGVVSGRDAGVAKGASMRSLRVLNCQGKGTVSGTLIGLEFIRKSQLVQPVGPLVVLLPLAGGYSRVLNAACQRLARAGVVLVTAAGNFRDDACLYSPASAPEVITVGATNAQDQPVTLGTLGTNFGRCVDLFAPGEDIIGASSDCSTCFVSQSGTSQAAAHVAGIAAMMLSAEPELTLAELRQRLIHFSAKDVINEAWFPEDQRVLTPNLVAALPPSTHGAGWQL

Row | reduction of the level of ACE2 in HeLa cells after 18 h with conditioned medium (Western blot, relative to β-actin) [%] | reduction of the level of ACE2 in HeLa cells after 18 h with PCSK9 conditioned medium (Western blot, relative to β-actin) [%] | Substance
1 | 50 |  | PCSK9 lacking the CHRD (from UniProt Q8NBP7 31-152; Q8NBP7 153-455) (domain or fragment)
2 | 50 |  | PCSK9 lacking the M2 module of the CHRD (from UniProt Q8NBP7 31-152; Q8NBP7 153-692) (natural protein)
3 | 90 |  | PCSK9-D374Y, gain-of-function natural variant (from UniProt Q8NBP7 31-152; Q8NBP7 153-692) (natural protein)
4 |  | 30 | wild-type human PCSK9, mature (prodomain non-covalently bound to the rest of the protein) (from UniProt Q8NBP7 31-152; Q8NBP7 153-692) (natural protein)
